B1: CEA liberated by PIPLC from CEA-GFP transfected 293T cells (other, UniProt P06731 35-685, looked up)
chain: KLTIESTPFNVAEGKEVLLLVHNLPQHLFGYSWYKGERVDGNRQIIGYVIGTQQATPGPAYSGREIIYPNASLLIQNIIQNDTGFYTLHVIKSDLVNEEATGQFRVYPELPKPSISSNNSKPVEDKDAVAFTCEPETQDATYLWWVNNQSLPVSPRLQLSNGNRTLTLFNVTRNDTASYKCETQNPVSARRSDSVILNVLYGPDAPTISPLNTSYRSGENLNLSCHAASNPPAQYSWFVNGTFQQSTQELFIPNITVNNSGSYTCQAHNSDTGLNRTTVTTITVYAEPPKPFITSNNSNPVEDEDAVALTCEPEIQNTTYLWWVNNQSLPVSPRLQLSNDNRTLTLLSVTRNDVGPYECGIQNELSVDHSDPVILNVLYGPDDPTISPSYTYYRPGVNLSLSCHAASNPPAQYSWLIDGNIQQHTQELFISNITEKNSGLYTCQANNSASGHSRTTVKTITVSAELPKPSISSNNSKPVEDKDAVAFTCEPEAQNTTYLWWVNGQSLPVSPRLQLSNGNRTLTLFNVTRNDARAYVCGIQNSVSANRSDPVTLDVLYGPDTPIISPPDSSYLSGANLNLSCHSASNPSPQYSWRINGIPQQHTQVLFIAKITPNNNGTYACFVSNLATGRNNSIVKSITVSASGTSPGLSA
notes: Soluble form in the supernatant of PIPLC treated transfectants; also called B9 reactive material

Assays:
[1] = molecular target: T1, human CD4 expressed on murine T cell hybridoma (3G4) (human, UniProt P01730 26-458); assay: absorption of PIPLC-released CEA on transfected hybridoma cells, immunoblot with mAb B9
T1 construct: whole, on cells
Method: (§1) CEA exists as a GPI anchored glycoprotein on the surface of IECs. This molecule can be cleaved using the enzyme PIPLC. […] Absorption of CEA by either CD4 or CD8 was determined by immunoblotting with mAb B9. […] These findings are consistent with functional properties previously ascribed to gp180.

[2] = molecular target: B1; assay: absorption on transfected hybridoma cells, immunoblot with mAb B9
Method: as §1

Binder | binding result [1] | binding result [2]
B1 | no binding | –
human CD8α expressed on murine T cell hybridoma (3G8) (receptor, whole, on cells; also called CD8α chains) not shown | – | binds

Source: patent publication US20050053613A1 (MOUNT SINAI SCHOOL OF MEDICINE, published 2005)
